According to the supplement of paper PMC10567573:

B1: SCNN1D (parent)
chain: FLGHHSFSVRPGTEATISIREDEV

Variants of: B1
Assay: protein stability index of a GFP-peptide fusion (GPS, HEK-293T) (PSI 1-6); higher = more stable
Details: c terminus: a fixed tail appended
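Further: lentivirally expressed fusions sorted by FACS into six bins by GFP to DsRed ratio, PSI derived from sequencing read proportions per bin multiplied by bin number.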

Q: Which protein stability index does the source give for FLGHHSFSVRPGTEATISIREDCV here?
A: 1.88

Q: With FLGHHSFSVRPGTEATISIREDAV as the variant, how does the protein stability index read?
A: 1.96

Q: With FLGHHSFSVRPGTEATISYREDEV as the variant, how does the protein stability index read?
A: 1.52

Q: Which protein stability index does the source give for FLGHHSFSVRPGTEATISRREDEV here?
A: 2.06

Q: Which protein stability index does the source give for FLGHHSFSVRPGTEATISEREDEV here?
A: 1.71

Q: With FLGHHSFSVRPGTEATISHREDEV as the variant, how does the protein stability index read?
A: 1.9

Q: Which protein stability index does the source give for FLGHHSFSVRPGTEATISFREDEV here?
A: 2.21

Q: With FLGHHSFSVRPGTEATISNREDEV as the variant, how does the protein stability index read?
A: 2.42

Q: With FLGHHSFSVRPGTEATISKREDEV as the variant, how does the protein stability index read?
A: 2.14

Q: For FLGHHSFSVRPGTEATISSREDEV, which protein stability index is on record?
A: 2.13

Q: With FLGHHSFSVRPGTEATISPREDEV as the variant, how does the protein stability index read?
A: 1.89

Q: Which protein stability index does the source give for FLGHHSFSVRPGTEATISTREDEV here?
A: 1.74

Q: With FLGHHSFSVRPGTEATISDREDEV as the variant, how does the protein stability index read?
A: 1.92

Q: Which protein stability index does the source give for FLGHHSFSVRPGTEATISMREDEV here?
A: 1.55

Q: With FLGHHSFSVRPGTEATISWREDEV as the variant, how does the protein stability index read?
A: 1.32

Q: Which protein stability index does the source give for FLGHHSFSVRPGTEATISLREDEV here?
A: 2.16

Q: For FLGHHSFSVRPGTEATISGREDEV, which protein stability index is on record?
A: 2.6

Q: With FLGHHSFSVRPGTEATISVREDEV as the variant, how does the protein stability index read?
A: 2.74

Q: With FLGHHSFSVRPGTEATISQREDEV as the variant, how does the protein stability index read?
A: 1.99

Q: With FLGHHSFSVRPGTEATISAREDEV as the variant, how does the protein stability index read?
A: 2.68

Q: Which protein stability index does the source give for FLGHHSFSVRPGTEATISCREDEV here?
A: 1.58

Q: With FLGHHSFSVRPGTNATISIREDEV as the variant, how does the protein stability index read?
A: 1.82

Q: Which protein stability index does the source give for FLGHHSFSVRPGTKATISIREDEV here?
A: 1.93

Q: For FLGHHSFSVRPGTTATISIREDEV, which protein stability index is on record?
A: 2.24

Q: For FLGHHSFSVRPGTVATISIREDEV, which protein stability index is on record?
A: 2.18

Q: Which protein stability index does the source give for FLGHHSFSVRPGTIATISIREDEV here?
A: 1.77

Q: Which protein stability index does the source give for FLGHHSFSVRPGTGATISIREDEV here?
A: 2.31

Q: Which protein stability index does the source give for FLGHHSFSVRPGTPATISIREDEV here?
A: 1.76

Q: Which protein stability index does the source give for FLGHHSFSVRPGTMATISIREDEV here?
A: 1.25

Q: For FLGHHSFSVRPGTDATISIREDEV, which protein stability index is on record?
A: 1.13

Q: For FLGHHSFSVRPGTFATISIREDEV, which protein stability index is on record?
A: 1.37

Q: For FLGHHSFSVRPGTRATISIREDEV, which protein stability index is on record?
A: 2.1

Q: Which protein stability index does the source give for FLGHHSFSVRPGTSATISIREDEV here?
A: 1.77

Q: For FLGHHSFSVRPGTHATISIREDEV, which protein stability index is on record?
A: 2.11

Q: With FLGHHSFSVRPGTAATISIREDEV as the variant, how does the protein stability index read?
A: 1.92

Q: Which protein stability index does the source give for FLGHHSFSVRPGTQATISIREDEV here?
A: 2.13

Q: For FLGHHSFSVRPGTLATISIREDEV, which protein stability index is on record?
A: 1.92

Q: Which protein stability index does the source give for FLGHHSFSVRPGTCATISIREDEV here?
A: 1.65

Q: With FLGHHSFSVRPGTYATISIREDEV as the variant, how does the protein stability index read?
A: 1.19

Q: For FLGHHSFSVRPGTEATISIREIEV, which protein stability index is on record?
A: 2.39

Q: With FLGHHSFSVRPGTEATISIRELEV as the variant, how does the protein stability index read?
A: 1.51

Q: With FLGHHSFSVRPGTEATISIREWEV as the variant, how does the protein stability index read?
A: 1.77

Q: For FLGHHSFSVRPGTEATISIREQEV, which protein stability index is on record?
A: 1.39

Q: For FLGHHSFSVRPGTEATISIREHEV, which protein stability index is on record?
A: 1.79

Q: With FLGHHSFSVRPGTEATISIREFEV as the variant, how does the protein stability index read?
A: 1.73

Q: For FLGHHSFSVRPGTEATISIREAEV, which protein stability index is on record?
A: 1.89

Q: With FLGHHSFSVRPGTEATISIREEEV as the variant, how does the protein stability index read?
A: 2.11

Q: Which protein stability index does the source give for FLGHHSFSVRPGTEATISIRENEV here?
A: 2.23

Q: For FLGHHSFSVRPGTEATISIREPEV, which protein stability index is on record?
A: 1.74

Q: With FLGHHSFSVRPGTEATISIREMEV as the variant, how does the protein stability index read?
A: 2.45

Q: With FLGHHSFSVRPGTEATISIREYEV as the variant, how does the protein stability index read?
A: 3.14

Q: With FLGHHSFSVRPGTEATISIRECEV as the variant, how does the protein stability index read?
A: 2.21

Q: Which protein stability index does the source give for FLGHHSFSVRPGTEATISIREVEV here?
A: 1.57

Q: With FLGHHSFSVRPGTEATISIRESEV as the variant, how does the protein stability index read?
A: 1.35

Q: Which protein stability index does the source give for FLGHHSFSVRPGTEATISIREREV here?
A: 2.4

Q: Which protein stability index does the source give for FLGHHSFSVRPGTEATISIRETEV here?
A: 2.07

Q: With FLGHHSFSVRPGTEATISIREKEV as the variant, how does the protein stability index read?
A: 2.04

Q: With FLGHHSFSVRPGTEAPISIREDEV as the variant, how does the protein stability index read?
A: 1.85

Q: Which protein stability index does the source give for FLGHHSFSVRPGTEAYISIREDEV here?
A: 2.23

Q: Which protein stability index does the source give for FLGHHSFSVRPGTEADISIREDEV here?
A: 3.29

Q: Which protein stability index does the source give for FLGHHSFSVRPGTEAEISIREDEV here?
A: 1.62

Q: Which protein stability index does the source give for FLGHHSFSVRPGTEAIISIREDEV here?
A: 2.29

Q: Which protein stability index does the source give for FLGHHSFSVRPGTEAMISIREDEV here?
A: 2.62

Q: Which protein stability index does the source give for FLGHHSFSVRPGTEAQISIREDEV here?
A: 2.8

Q: Which protein stability index does the source give for FLGHHSFSVRPGTEASISIREDEV here?
A: 2.57

Q: With FLGHHSFSVRPGTEAGISIREDEV as the variant, how does the protein stability index read?
A: 2.1

Q: Which protein stability index does the source give for FLGHHSFSVRPGTEAFISIREDEV here?
A: 2.04

Q: Which protein stability index does the source give for FLGHHSFSVRPGTEAKISIREDEV here?
A: 1.75

Q: Which protein stability index does the source give for FLGHHSFSVRPGTEAVISIREDEV here?
A: 2.25

Q: Which protein stability index does the source give for FLGHHSFSVRPGTEAAISIREDEV here?
A: 2.37

Q: With FLGHHSFSVRPGTEALISIREDEV as the variant, how does the protein stability index read?
A: 1.49

Q: Which protein stability index does the source give for FLGHHSFSVRPGTEANISIREDEV here?
A: 2.05

Q: For FLGHHSFSVRPGTEAWISIREDEV, which protein stability index is on record?
A: 1.4

Q: Which protein stability index does the source give for FLGHHSFSVRPGTEARISIREDEV here?
A: 2.46

Q: With FLGHHSFSVRPGTEACISIREDEV as the variant, how does the protein stability index read?
A: 1.29

Q: For FLGHHSFSVRPGTEAHISIREDEV, which protein stability index is on record?
A: 1.87

Q: With FLGHHSFSVRPGAEATISIREDEV as the variant, how does the protein stability index read?
A: 1.77

Q: For FLGHHSFSVRPGGEATISIREDEV, which protein stability index is on record?
A: 1.25

Q: With FLGHHSFSVRPGYEATISIREDEV as the variant, how does the protein stability index read?
A: 1.36

Q: For FLGHHSFSVRPGCEATISIREDEV, which protein stability index is on record?
A: 1.58

Q: For FLGHHSFSVRPGHEATISIREDEV, which protein stability index is on record?
A: 2.03

Q: With FLGHHSFSVRPGKEATISIREDEV as the variant, how does the protein stability index read?
A: 2.37

Q: Which protein stability index does the source give for FLGHHSFSVRPGREATISIREDEV here?
A: 1.7

Q: With FLGHHSFSVRPGQEATISIREDEV as the variant, how does the protein stability index read?
A: 1.97

Q: With FLGHHSFSVRPGEEATISIREDEV as the variant, how does the protein stability index read?
A: 2.09

Q: With FLGHHSFSVRPGDEATISIREDEV as the variant, how does the protein stability index read?
A: 1.63

Q: With FLGHHSFSVRPGSEATISIREDEV as the variant, how does the protein stability index read?
A: 1.18

Q: For FLGHHSFSVRPGLEATISIREDEV, which protein stability index is on record?
A: 2.71

Q: With FLGHHSFSVRPGIEATISIREDEV as the variant, how does the protein stability index read?
A: 1.44

Q: For FLGHHSFSVRPGNEATISIREDEV, which protein stability index is on record?
A: 1.49

Q: For FLGHHSFSVRPGFEATISIREDEV, which protein stability index is on record?
A: 1.91

Q: With FLGHHSFSVRPGMEATISIREDEV as the variant, how does the protein stability index read?
A: 1.73

Q: For FLGHHSFSVRPGVEATISIREDEV, which protein stability index is on record?
A: 1.49

Q: For FLGHHSFSVRPGPEATISIREDEV, which protein stability index is on record?
A: 1.88
